The source of these data is patent US6608174B1, “Radiolabeled vasoactive intestinal peptide analogs for diagnosis and radiotherapy” (Dabur Research Foundation, priority 2000, dated 2003).

The series relates to human adenocarcinoma tumor. On the set-up: species or system NIH nu/nu nude mice. The note with it: mouse, in vivo, iv. An excerpt:
Tc-99m labeled peptide (SEQ ID NO: 10) was used to image tumors induced subcutaneously in the abdomen of NIH nu/nu nude mice. Following intravenous administration in human adenocarcinoma tumor bearing nude mice, images were taken at different time intervals post […], using a conventional gamma camera. […] The results are shown in FIG. 1 which clearly depicts that the accumulation of Tc-99m labeled VIP analog is high in tumor (indicated with arrow) as compared to the accumulation in viscera (unmarked dots) after 3 hours of injection.

Square brackets hold non-standard residues; d marks the D form. Peptide text beside a SMILES is read from it. * marks the point of attachment. DTPA = O=C(O)CN(CCN(CC(=O)O)CC(=O)O)CCN(CC(=O)O)CC(=O)*; dPhe(4-Cl) = N[C@H](Cc1ccc(Cl)cc1)C(=O)O; Aib = CC(C)(N)C(=O)O; Ahx = NCCCCCC(=O)O

Take `CC[C@H](C)[C@H](NC(=O)[C@H](CO)NC(=O)[C@H](CC(N)=O)NC(=O)[C@H](CC(C)C)NC(=O)[C@H](Cc1ccc(O)cc1)NC(=O)[C@H](CCCCN)NC(=O)[C@H](CCCCN)NC(=O)[C@@H](NC(=O)[C@H](C)NC(=O)[C@H](CC(C)C)NC(=O)[C@H](CCC(N)=O)NC(=O)[C@H](CCCCN)NC(=O)[C@H](CCCNC(=N)N)NC(=O)[C@H](CC(C)C)NC(=O)[C@H](CCCNC(=N)N)NC(=O)[C@@H](NC(=O)[C@H](Cc1ccc(O)cc1)NC(=O)[C@H](CC(N)=O)NC(=O)[C@H](CC(=O)O)NC(=O)[C@@H](NC(=O)[C@@H](Cc1ccc(Cl)cc1)NC(=O)[C@@H](NC(=O)C(C)(C)NC(=O)[C@H](CC(=O)O)NC(=O)[C@H](CO)NC(=O)[C@H](Cc1c[nH]cn1)NC(=O)CCCCCNC(=O)CN(CCN(CCN(CC(=O)O)CC(=O)O)CC(=O)O)CC(=O)O)C(C)C)[C@@H](C)O)[C@@H](C)O)C(C)C)C(=O)N[C@@H](CC(C)C)C(=O)N[C@@H](CC(N)=O)C(N)=O` [Tc-99m labeled peptide (SEQ ID NO: 10), metal not drawn] ({DTPA-Ahx}-HSD[Aib]V[dPhe(4-Cl)]TDNYTRLRKQLAVKKYLNSILN-NH2): the “accumulation in liver and kidney” value was “little accumulation in liver and kidney”; the blood clearance entry is on record as “rapid blood clearance”.
